Laboratory results from the supplement of paper PMC7877785.
± gives the uncertainty stated by the source.

Assay: self-splicing fitness, log relative to wild type (ln ratio); higher = more splicing; Tetrahymena group I intron in knt gene, E. coli kanamycin selection, DiMSum; sequences stand for … in CUCUCU…GGAGGGAAAAGUUAUCAGGCAUGCACCUGGUAGCUAGUCUUUAAACCAAUAGAUUGCAUCGGUUUAAAAGGCAAGACCGUCAAAUUGCGGGAAAGGGGUCAACAGCCGUUCAGUACCAAGUCUCAGGGGAAACUUUGAGAUGGCCUUGCAAAGGGUAUGGUAAUAAGCUGACGGACAUGGUCCUAACCACGCAGCCAAGUCCUAAGUCAACAGAUCUUCUGUUGAUAUGGAUGCAGUUCACAGACUAAAUGUCGGUCGGGGAAGAUGUAUUCUUCUCAUAAGAUAUAGUCGGACCUCUCCUUAAUGGGAGCUAGCGGAUGAAGUGAUGCAACACUGGAGCCGCUGGGAACUAAUUUGUAUGCGAAAGUAUAUUGAUUAGUUUUGGAGUACUCGUGGUCG
In short: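 Fitness was computed with DiMSum as the error-weighted combination of replicate fold changes, kanamycin versus none, each normalised to wild type. The library randomised all eight intron nucleotides of the P1ex region, with the intron placed in the knt kanamycin-resistance gene on pET-22b(+) in E. coli BL21(DE3). Six replicate transformations were grown overnight at 37°C or 30°C on LB agar with or without 25 μg/mL kanamycin, plus 100 μg/mL carbenicillin, 50 μM IPTG and 0.2% rhamnose. Pooled colonies were amplicon-sequenced on an Illumina HiSeq 2500.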

| Sequence | self-splicing fitness (ln) (30 °C) | self-splicing fitness (ln) (37 °C) |
| --- | --- | --- |
| GGAAAGCAAUAUUACGCUAU | -2.74 ± 0.28 | -2.11 ± 0.21 |
| GGAAAGCAAUAUUACGCUGC | -3.32 ± 0.38 | – |
| GGAAAGCAAUAUUACGGAUU | -1.93 ± 0.085 | -0.946 ± 0.11 |
| GGAAAGCAAUAUUACGGCAC | -0.927 ± 0.12 | -0.0107 ± 0.14 |
| GGAAAGCAAUAUUACGGGCU | -1.29 ± 0.12 | -0.815 ± 0.18 |
| GGAAAGCAAUAUUACGUAUC | -2.09 ± 0.18 | -1.01 ± 0.15 |
| GGAAAGCAAUAUUACGUCAU | -2.34 ± 0.18 | -1.38 ± 0.18 |
| GGAAAGCAAUAUUACGUCCU | -3.68 ± 0.21 | -1.14 ± 0.14 |
| GGAAAGCAAUAUUACGUCUG | -0.579 ± 0.054 | 0.2 ± 0.07 |
| GGAAAGCAAUAUUACGUCUU | -0.00168 ± 0.13 | -0.112 ± 0.15 |
| GGAAAGCAAUAUUACGUGCU | -1.11 ± 0.089 | -0.467 ± 0.096 |
| GGAAAGCAAUAUUACGUUGU | -4.15 ± 0.23 | -2.19 ± 0.15 |
| GGACAGCAAUAUUACGACGA | -1.77 ± 0.16 | -0.403 ± 0.19 |
| GGACAGCAAUAUUACGACGG | -2.69 ± 0.28 | -2.16 ± 0.36 |
| GGACAGCAAUAUUACGAGAU | -3.03 ± 0.14 | -1.45 ± 0.13 |
| GGACAGCAAUAUUACGAUUU | 0.167 ± 0.047 | 0.417 ± 0.065 |
| GGACAGCAAUAUUACGCACU | -1.12 ± 0.086 | -0.6 ± 0.13 |
| GGACAGCAAUAUUACGCUUG | -1.45 ± 0.094 | -0.762 ± 0.11 |
| GGACAGCAAUAUUACGGAUA | -1.13 ± 0.11 | -1.51 ± 0.093 |
| GGACAGCAAUAUUACGGCCU | -2.3 ± 0.13 | -1.13 ± 0.12 |
| GGACAGCAAUAUUACGGGAC | -1.56 ± 0.13 | -1.98 ± 0.19 |
| GGACAGCAAUAUUACGGGUC | -3.54 ± 0.23 | -2.56 ± 0.26 |
| GGACAGCAAUAUUACGGUCG | -1.1 ± 0.092 | -0.39 ± 0.14 |
| GGACAGCAAUAUUACGUAUU | -0.426 ± 0.049 | -0.492 ± 0.068 |
| GGACAGCAAUAUUACGUCGC | -3.12 ± 0.18 | 0.343 ± 0.15 |

| Sequence | self-splicing fitness (ln) (30 °C) | self-splicing fitness (ln) (37 °C) |
| --- | --- | --- |
| GGACAGCAAUAUUACGUCGU | -1.45 ± 0.071 | -0.405 ± 0.075 |
| GGAGAGCAAUAUUACGAAAU | – | -2.48 ± 0.48 |
| GGAGAGCAAUAUUACGACGC | -0.0524 ± 0.081 | -0.0426 ± 0.092 |
| GGAGAGCAAUAUUACGACGG | -2.35 ± 0.29 | -2.17 ± 0.36 |
| GGAGAGCAAUAUUACGAGAC | -2.12 ± 0.22 | -1.88 ± 0.35 |
| GGAGAGCAAUAUUACGAUCU | – | -2.47 ± 0.29 |
| GGAGAGCAAUAUUACGAUGG | -4.43 ± 0.46 | – |
| GGAGAGCAAUAUUACGAUUA | – | -0.884 ± 0.37 |
| GGAGAGCAAUAUUACGAUUG | -2.75 ± 0.26 | -2.17 ± 0.43 |
| GGAGAGCAAUAUUACGAUUU | -1.65 ± 0.24 | 0.185 ± 0.43 |
| GGAGAGCAAUAUUACGCCUC | -3.07 ± 0.36 | – |
| GGAGAGCAAUAUUACGCGAA | -2.02 ± 0.24 | -2.72 ± 0.36 |
| GGAGAGCAAUAUUACGCGCA | -1.36 ± 0.19 | -0.414 ± 0.21 |
| GGAGAGCAAUAUUACGCGGG | -2.21 ± 0.35 | – |
| GGAGAGCAAUAUUACGGAGA | -2.3 ± 0.29 | – |
| GGAGAGCAAUAUUACGGGAC | -2.46 ± 0.23 | -0.231 ± 0.32 |
| GGAGAGCAAUAUUACGGGCU | -2.73 ± 0.27 | – |
| GGAGAGCAAUAUUACGGUCA | -1.14 ± 0.2 | -2.11 ± 0.36 |
| GGAGAGCAAUAUUACGGUGG | -3.5 ± 0.28 | -2.25 ± 0.23 |
| GGAGAGCAAUAUUACGUCCG | -1.5 ± 0.1 | -0.937 ± 0.13 |
| GGAGAGCAAUAUUACGUGGG | -3.07 ± 0.44 | -2.28 ± 0.33 |
| GGAGAGCAAUAUUACGUUCC | – | -2 ± 0.28 |
| GGAUAGCAAUAUUACGAACU | -0.708 ± 0.15 | -0.573 ± 0.19 |
| GGAUAGCAAUAUUACGAAGC | -2.6 ± 0.48 | – |
| GGAUAGCAAUAUUACGACAA | -0.923 ± 0.12 | -0.865 ± 0.14 |

| Sequence | self-splicing fitness (ln) (30 °C) | self-splicing fitness (ln) (37 °C) |
| --- | --- | --- |
| GGAUAGCAAUAUUACGACUG | -0.737 ± 0.15 | -1.08 ± 0.19 |
| GGAUAGCAAUAUUACGAGCA | -1.26 ± 0.26 | -1.05 ± 0.14 |
| GGAUAGCAAUAUUACGAGGA | -3.28 ± 0.25 | -1.15 ± 0.17 |
| GGAUAGCAAUAUUACGAGUU | -1.59 ± 0.1 | -1.64 ± 0.14 |
| GGAUAGCAAUAUUACGAUUG | -1.55 ± 0.15 | -1.44 ± 0.24 |
| GGAUAGCAAUAUUACGAUUU | 0.317 ± 0.072 | 0.459 ± 0.09 |
| GGAUAGCAAUAUUACGCCCA | -1.36 ± 0.49 | -1.39 ± 0.33 |
| GGAUAGCAAUAUUACGCCCU | -2.08 ± 0.14 | -2.27 ± 0.17 |
| GGAUAGCAAUAUUACGCGUA | -0.646 ± 0.21 | -2.02 ± 0.18 |
| GGAUAGCAAUAUUACGCUUG | -1.81 ± 0.12 | -1.11 ± 0.16 |
| GGAUAGCAAUAUUACGGAUA | – | -1.56 ± 0.26 |
| GGAUAGCAAUAUUACGGCCA | -0.925 ± 0.19 | -0.211 ± 0.18 |
| GGAUAGCAAUAUUACGUACU | -0.979 ± 0.096 | 0.0901 ± 0.14 |
| GGAUAGCAAUAUUACGUAUA | -2.53 ± 0.2 | -0.564 ± 0.15 |
| GGAUAGCAAUAUUACGUCAA | -1.09 ± 0.19 | 0.00829 ± 0.15 |
| GGAUAGCAAUAUUACGUGGA | -3.31 ± 0.21 | -2.47 ± 0.21 |
| GGAUAGCAAUAUUACGUGGG | – | -0.24 ± 0.16 |
| GGAUAGCAAUAUUACGUGUA | -2.33 ± 0.13 | -2.18 ± 0.12 |
| GGAUAGCAAUAUUACGUGUC | -3.16 ± 0.28 | – |
| GGAUAGCAAUAUUACGUGUU | -3.31 ± 0.17 | -1.63 ± 0.14 |
| GGCAAGCAAUAUUACGACGC | -0.177 ± 0.14 | -0.105 ± 0.17 |
| GGCAAGCAAUAUUACGACGG | -2.85 ± 0.16 | -2.72 ± 0.2 |
| GGCAAGCAAUAUUACGAUGG | -2.61 ± 0.19 | -1.52 ± 0.16 |
| GGCAAGCAAUAUUACGCCGA | -2.14 ± 0.32 | -0.337 ± 0.25 |
| GGCAAGCAAUAUUACGCCUC | -2.03 ± 0.13 | -1.34 ± 0.12 |

| Sequence | self-splicing fitness (ln) (30 °C) | self-splicing fitness (ln) (37 °C) |
| --- | --- | --- |
| GGCAAGCAAUAUUACGCCUU | -2.83 ± 0.22 | -0.231 ± 0.16 |
| GGCAAGCAAUAUUACGGGGU | -2.5 ± 0.099 | -0.776 ± 0.094 |
| GGCAAGCAAUAUUACGGUCA | -0.571 ± 0.09 | 0.329 ± 0.096 |
| GGCAAGCAAUAUUACGGUUU | -0.376 ± 0.052 | 0.232 ± 0.069 |
| GGCAAGCAAUAUUACGUACC | -1.35 ± 0.065 | -0.299 ± 0.083 |
| GGCAAGCAAUAUUACGUCAC | -3.31 ± 0.22 | -0.36 ± 0.17 |
| GGCAAGCAAUAUUACGUCCU | -1.39 ± 0.088 | -1.54 ± 0.11 |
| GGCAAGCAAUAUUACGUCGC | -2.66 ± 0.14 | -1.38 ± 0.13 |
| GGCAAGCAAUAUUACGUCGG | -3.42 ± 0.2 | -2.47 ± 0.32 |
| GGCAAGCAAUAUUACGUUGA | -0.666 ± 0.066 | -0.307 ± 0.092 |
| GGCCAGCAAUAUUACGACAG | -4.12 ± 0.25 | -3.08 ± 0.35 |
| GGCCAGCAAUAUUACGACCG | -1.21 ± 0.11 | -0.323 ± 0.14 |
| GGCCAGCAAUAUUACGAGCC | -2.63 ± 0.26 | -2.72 ± 0.29 |
| GGCCAGCAAUAUUACGAUCC | -0.826 ± 0.11 | 0.0889 ± 0.14 |
| GGCCAGCAAUAUUACGAUCU | -0.383 ± 0.06 | -0.133 ± 0.078 |
| GGCCAGCAAUAUUACGCAGG | – | -2.78 ± 0.22 |
| GGCCAGCAAUAUUACGCGCG | -0.959 ± 0.089 | -0.284 ± 0.12 |
| GGCCAGCAAUAUUACGCUAG | -3.21 ± 0.21 | -2.47 ± 0.3 |
| GGCCAGCAAUAUUACGCUCA | -0.637 ± 0.13 | -0.183 ± 0.13 |
| GGCCAGCAAUAUUACGCUCG | -2.5 ± 0.15 | -0.863 ± 0.13 |
| GGCCAGCAAUAUUACGCUUC | -1.98 ± 0.15 | -0.344 ± 0.11 |
| GGCCAGCAAUAUUACGGAGG | -2.39 ± 0.11 | -1.14 ± 0.14 |
| GGCCAGCAAUAUUACGGAUC | -0.753 ± 0.092 | -0.347 ± 0.11 |
| GGCCAGCAAUAUUACGGUCC | -3.11 ± 0.21 | -2.45 ± 0.37 |
| GGCCAGCAAUAUUACGUAGA | -1.59 ± 0.12 | -1.04 ± 0.15 |
